Test: confocal microscopy, plasma membrane localisation, HT1080 and HL-1 cells
Settings: glycan lost; control: wild-type DSC2-eYFP

| Substance | localisation_or_trafficking |
| --- | --- |
| Desmocollin-2 (DSC2): p.N166Q | no change |
| Desmocollin-2 (DSC2): p.N392Q | no change |
| Desmocollin-2 (DSC2): p.N546Q | no change |
| Desmocollin-2 (DSC2): p.N629Q | no change |
